Measurements reported in the supplement of paper PMC10567573.

B1: GNB5 (parent)
chain: DINSVRYYPSGDAFASGSDDATCR

Variants of: B1
Experiment: protein stability index of a GFP-peptide fusion (GPS, HEK-293T) (PSI 1-6); higher = more stable
Conditions: c terminus: a fixed tail appended
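Note: lentivirally expressed fusions sorted by FACS into six bins by GFP to DsRed ratio, PSI derived from sequencing read proportions per bin multiplied by bin number.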

Variant | protein stability index
DINSVRYYPSGDAFLSGSDDATCR | 3.73
DINSVRYYPSGDAFPSGSDDATCR | 3.92
DINSVRYYPSGDAFYSGSDDATCR | 3.23
DINSVRYYPSGDAFNSGSDDATCR | 4.12
DINSVRYYPSGDAFWSGSDDATCR | 3.29
DINSVRYYPSGDAFVSGSDDATCR | 3.91
DINSVRYYPSGDAFMSGSDDATCR | 3.57
DINSVRYYPSGDAFKSGSDDATCR | 3.58
DINSVRYYPSGDAFCSGSDDATCR | 3.66
DINSVRYYPSGDAFESGSDDATCR | 4.09
DINSVRYYPSGDAFDSGSDDATCR | 4.16
DINSVRYYPSGDAFQSGSDDATCR | 3.86
DINSVRYYPSGDAFISGSDDATCR | 3.43
DINSVRYYPSGDAFTSGSDDATCR | 3.63
DINSVRYYPSGDAFGSGSDDATCR | 3.51
DINSVRYYPSGDAFRSGSDDATCR | 2.99
DINSVRYYPSGDAFHSGSDDATCR | 3.7
DINSVRYYPSGDAFFSGSDDATCR | 2.83
DINSVRYYPSGDAFSSGSDDATCR | 3.66
DINSVRYYPSRDAFASGSDDATCR | 3.67
DINSVRYYPSNDAFASGSDDATCR | 3.81
DINSVRYYPSSDAFASGSDDATCR | 4.09
DINSVRYYPSVDAFASGSDDATCR | 3.46
DINSVRYYPSPDAFASGSDDATCR | 3.93

Variant | protein stability index
DINSVRYYPSQDAFASGSDDATCR | 3.91
DINSVRYYPSWDAFASGSDDATCR | 2.91
DINSVRYYPSYDAFASGSDDATCR | 3.48
DINSVRYYPSTDAFASGSDDATCR | 3.74
DINSVRYYPSMDAFASGSDDATCR | 4.02
DINSVRYYPSGDAFASISDDATCR | 3.21
DINSVRYYPSGDAFASFSDDATCR | 2.93
DINSVRYYPSGDAFASPSDDATCR | 4.05
DINSVRYYPSGDAFASWSDDATCR | 3.07
DINSVRYYPSGDAFASQSDDATCR | 3.75
DINSVRYYPSGDAFASMSDDATCR | 3.29
DINSVRYYPSGDAFASNSDDATCR | 3.68
DINSVRYYPSGDAFASDSDDATCR | 4.4
DINSVRYYPSGDAFASVSDDATCR | 3.65
DINSVRYYPSGDAFASHSDDATCR | 3.4
DINSVRYYPSGDAFASLSDDATCR | 3.12
DINSVRYYPSGDAFASASDDATCR | 3.74
DINSVRYYPSGDAFASYSDDATCR | 3.29
DINSVRYYPSGDAFASTSDDATCR | 3.63
DINSVRYYPSGDAFASCSDDATCR | 3.66
DINSVRYYPSGDAFASKSDDATCR | 3.65
DINSVRYYPSGDAFASESDDATCR | 4.34
DINSVRYYPSGDAFASRSDDATCR | 3.65
DINSVRYYPSGDAFASSSDDATCR | 3.84

Variant | protein stability index
DINSVRYYPSGDAFASGSDDFTCR | 3.3
DINSVRYYPSGDAFASGSDDETCR | 4.38
DINSVRYYPSGDAFASGSDDGTCR | 3.63
DINSVRYYPSGDAFASGSDDDTCR | 4.34
DINSVRYYPSGDAFASGSDDITCR | 3.44
DINSVRYYPSGDAFASGSDDHTCR | 3.62
DINSVRYYPSGDAFASGSDDCTCR | 3.82
DINSVRYYPSGEAFASGSDDATCR | 3.61
DINSVRYYPSGMAFASGSDDATCR | 2.7
DINSVRYYPSGYAFASGSDDATCR | 3.19
DINSVRYYPSGAAFASGSDDATCR | 3.4
DINSVRYYPSGVAFASGSDDATCR | 2.94
DINSVRYYPSGNAFASGSDDATCR | 3.06
DINSVRYYPSGIAFASGSDDATCR | 3.08
DINSVRYYPSGWAFASGSDDATCR | 2.77
DINSVRYYPSGFAFASGSDDATCR | 2.69
DINSVRYYPSGGAFASGSDDATCR | 3.54
DINSVRYYPSGCAFASGSDDATCR | 2.66
DINSVRYYPSGSAFASGSDDATCR | 3.46
DINSVRYYPSGQAFASGSDDATCR | 3.46
DINSVRYYPSGPAFASGSDDATCR | 3.34
DINSVRYYPSGLAFASGSDDATCR | 2.87
DINSVRYYPSGRAFASGSDDATCR | 3.33
DINSVRYYPSGKAFASGSDDATCR | 3

Variant | protein stability index
DINSVRYYPSGHAFASGSDDATCR | 3.34
DINSVRYYPSGTAFASGSDDATCR | 3.31
DINSVRYYPSGDAFASGSHDATCR | 3.12
DINSVRYYPSGDAFASGSTDATCR | 3.25
DINSVRYYPSGDAFASGSVDATCR | 2.69
DINSVRYYPSGDAFASGSYDATCR | 2.62
DINSVRYYPSGDAFASGSRDATCR | 3.06
DINSVRYYPSGDAFASGSFDATCR | 2.39
DINSVRYYPSGDAFASGSWDATCR | 3.03
DINSVRYYPSGDAFASGSMDATCR | 2.95
DINSVRYYPSGDAFASGSIDATCR | 3.03
DINSVRYYPSGDAFASGSCDATCR | 2.85
DINSVRYYPSGDAFASGSQDATCR | 3.75
DINSVRYYPSGDAFASGSLDATCR | 3.14
DINSVRYYPSGDAFASGSSDATCR | 3.4
DINSVRYYPSGDAFASGSPDATCR | 3.4
DINSVRYYPSGDAFASGSEDATCR | 4.15
DINSVRYYPSGDAFASGSGDATCR | 3.79
DINSVRYYPSGDAFASGSKDATCR | 3.7
DINSVRYYPSGDAFASGSNDATCR | 3.2
DINSVRYYPSGDAFASGSADATCR | 2.88
DINSVRYYPSGDAFASGDDDATCR | 4.24
DINSVRYYPSGDAFASGEDDATCR | 4.43
DINSVRYYPSGDAFASGYDDATCR | 3.43

Variant | protein stability index
DINSVRYYPSGDAFASGPDDATCR | 3.74
DINSVRYYPSGDAFASGQDDATCR | 3.81
DINSVRYYPSGDAFASGGDDATCR | 4.48
DINSVRYYPSGDAFASGWDDATCR | 3.02
DINSVRYYPSGDAFASGKDDATCR | 3.55
DINSVRYYPSGDAFASGNDDATCR | 4
DINSVRYYPSGDAFASGCDDATCR | 3.88
DINSVRYYPSGDAFASGTDDATCR | 4.06
DINSVRYYPSGDAFASGHDDATCR | 3.82
DINSVRYYPSGDAFASGRDDATCR | 3.12
DINSVRYYPSGDAFASGMDDATCR | 3.49
DINSVRYYPSGDAFASGFDDATCR | 3.26
DINSVRYYPSGDAFASGLDDATCR | 3.55
DINSVRYYPSGDAFASGVDDATCR | 3.33
DINSVRYYPSGDAFASGIDDATCR | 3.56
DINSVRYYPSGDAFASGADDATCR | 3.35
DINSVRYYPSGDAFADGSDDATCR | 4.27
DINSVRYYPSGDAFATGSDDATCR | 3.49
DINSVRYYPSGDAFAFGSDDATCR | 3.46
DINSVRYYPSGDAFAEGSDDATCR | 4.55
DINSVRYYPSGDAFAGGSDDATCR | 4.28
DINSVRYYPSGDAFAYGSDDATCR | 3.55
DINSVRYYPSGDAFAVGSDDATCR | 3.84
DINSVRYYPSGDAFAAGSDDATCR | 4.04

Variant | protein stability index
DINSVRYYPSGDAFARGSDDATCR | 3.77
DINSVRYYPSGDAFAIGSDDATCR | 3.27
DINSVRYYPSGDAFAWGSDDATCR | 3.15
DINSVRYYPSGDAFACGSDDATCR | 3.66
DINSVRYYPSGDAFAPGSDDATCR | 3.88
DINSVRYYPSGDAFAKGSDDATCR | 3.34
DINSVRYYPSGDAFANGSDDATCR | 4.15
DINSVRYYPSGDAFAQGSDDATCR | 3.78
DINSVRYYPSGDAFAHGSDDATCR | 3.84
DINSVRYYPSGDAFAMGSDDATCR | 3.29
DINSVRYYPSGDAFALGSDDATCR | 3.58
DINSVRYYPSGDAYASGSDDATCR | 4.09
DINSVRYYPSGDAVASGSDDATCR | 4.28
DINSVRYYPSGDAQASGSDDATCR | 4.44
DINSVRYYPSGDAAASGSDDATCR | 4.21
DINSVRYYPSGDAHASGSDDATCR | 3.99
DINSVRYYPSGDAPASGSDDATCR | 4.38
DINSVRYYPSGDAMASGSDDATCR | 3.85
DINSVRYYPSGDADASGSDDATCR | 4.16
DINSVRYYPSGDATASGSDDATCR | 4.75
DINSVRYYPSGDASASGSDDATCR | 4.64
DINSVRYYPSGDARASGSDDATCR | 3.64
DINSVRYYPSGDAEASGSDDATCR | 5
DINSVRYYPSGDACASGSDDATCR | 4.16

Variant | protein stability index
DINSVRYYPSGDAIASGSDDATCR | 4.49
DINSVRYYPSGDAGASGSDDATCR | 5.08
DINSVRYYPSGDALASGSDDATCR | 4.1
DINSVRYYPSGDANASGSDDATCR | 3.8
DINSVRYYPSGDAWASGSDDATCR | 3.94
DINSVRYYPSGDAKASGSDDATCR | 4.12
DINSVRYYPSGDDFASGSDDATCR | 4.47
DINSVRYYPSGDTFASGSDDATCR | 4
DINSVRYYPSGDRFASGSDDATCR | 3.81
DINSVRYYPSGDPFASGSDDATCR | 4.14
DINSVRYYPSGDSFASGSDDATCR | 3.88
DINSVRYYPSGDCFASGSDDATCR | 3.71
DINSVRYYPSGDYFASGSDDATCR | 3.22
DINSVRYYPSGDGFASGSDDATCR | 4.03
DINSVRYYPSGDQFASGSDDATCR | 4.4
DINSVRYYPSGDNFASGSDDATCR | 3.98
DINSVRYYPSGDIFASGSDDATCR | 3.28
DINSVRYYPSGDHFASGSDDATCR | 4.02
DINSVRYYPSGDKFASGSDDATCR | 3.53
DINSVRYYPSGDVFASGSDDATCR | 3.69
DINSVRYYPSGDMFASGSDDATCR | 3.69
DINSVRYYPSGDLFASGSDDATCR | 3.44
DINSVRYYPSGDFFASGSDDATCR | 3.12
DINSVRYYPSGDEFASGSDDATCR | 4.66

Variant | protein stability index
DINSVRYYPSGDWFASGSDDATCR | 3.42
DINSVRYYPSGDAFASGSDIATCR | 3.14
DINSVRYYPSGDAFASGSDCATCR | 3.53
DINSVRYYPSGDAFASGSDRATCR | 3.2
DINSVRYYPSGDAFASGSDHATCR | 3.04
DINSVRYYPSGDAFASGSDVATCR | 3.27
DINSVRYYPSGDAFASGSDQATCR | 3.69
DINSVRYYPSGDAFASGSDSATCR | 3.47
DINSVRYYPSGDAFASGSDMATCR | 3.13
DINSVRYYPSGDAFASGSDWATCR | 2.16
DINSVRYYPSGDAFASGSDLATCR | 3.15
DINSVRYYPSGDAFASGSDFATCR | 2.5
DINSVRYYPSGDAFASGSDNATCR | 3.42
DINSVRYYPSGDAFASGSDAATCR | 3.44
DINSVRYYPSGDAFASGSDPATCR | 3.4
DINSVRYYPSGDAFASGSDTATCR | 3.58
DINSVRYYPSGDAFASGSDEATCR | 3.94
DINSVRYYPSGDAFASGSDKATCR | 3.06
DINSVRYYPSGDAFASGSDYATCR | 2.6
DINSVRYYPSGDAFASGSDGATCR | 3.61
